# B1: E3: humanized, affinity matured anti-NGF antagonist antibody; variable regions SEQ ID NO:1 and 2; human IgG2a (A330P331 to S330S331), kappa (antibody, V domains shown)
# VH: QVQLQESGPGLVKPSETLSLTCTVSGFSLIGYDLNWIRQPPGKGLEWIGIIWGDGTTDYNSAVKSRVTISKDTSKNQFSLKLSSVTAADTAVYYCARGGYWYATSYYFDYWGQGTLVTVS
# VL: DIQMTQSPSSLSASVGDRVTITCRASQSISNNLNWYQQKPGKAPKLLIYYTSRFHSGVPSRFSGSGSGTDFTFTISSLQPEDIATYYCQQEHTLPYTFGQGTKLEIKRT
# modifications: human IgG2a constant (A330S/P331S) and kappa constant missing
# Test: Dose response of E3 on body weight in arthritic rats (Example 9)
# Format: in vivo, rat
# Protocol: The ability of E3 to produce reduction in pain in arthritic rats was further investigated by examining the dose response relationship between E3 administration and pain reduction. Rats were treated with adjuvant to induce arthritis as described above. Ten rats not injected with adjuvant were used as non-arthritic controls. Fourteen days after adjuvant injection, animals were qualified into the study based on the criteria stated above, randomized into eight groups of ten rats and tested for the intensity of their vocalization response. They were then dosed on day 14 with saline, or 0.003 mg/kg, 0.01 mg/kg, 0.03 mg/kg, 0.1 mg/kg, 0.3 mg/kg, 1 mg/kg or 5 mg/kg of E3 antibody as described above. Animals were tested for their vocalization response on days 16, 18, 20, and 24. Animals were redosed with saline or the same dose of E3 on day 18 after the vocalization testing. Animals were also weighed each day, starting at day 14. Thus, animals were dosed twice with a given dose of antibody or saline on days 14 and 18, and assessed for pain five times, on days 14, 16, 18, 20 and 24. Data are shown in Tables 20-22 and in FIGS. 20-22.
# The effect of treating animals with various doses of anti-NGF antibody E3 on body weight was statistically analyzed by using two-way ANOVA to compare the results obtained pairwise between arthritic animals treated with vehicle with those treated with a given dose of antibody E3. […] At all higher dose of E3, the difference between treated and untreated arthritic animals was significant (p= or <0.0001). […]
# [1] = E3 0.003 mg/kg on days 14+18, day 14
# [2] = E3 0.003 mg/kg on days 14+18, day 15
# [3] = E3 0.003 mg/kg on days 14+18, day 16
# [4] = E3 0.003 mg/kg on days 14+18, day 17
# [5] = E3 0.003 mg/kg on days 14+18, day 18
# [6] = E3 0.003 mg/kg on days 14+18, day 20
# [7] = E3 0.003 mg/kg on days 14+18, day 21
# [8] = E3 0.003 mg/kg on days 14+18, day 23
# [9] = E3 0.003 mg/kg on days 14+18, day 24
# [10] = E3 0.01 mg/kg on days 14+18, day 14
# [11] = E3 0.01 mg/kg on days 14+18, day 15
# [12] = E3 0.01 mg/kg on days 14+18, day 16
# [13] = E3 0.01 mg/kg on days 14+18, day 17
# [14] = E3 0.01 mg/kg on days 14+18, day 18
# [15] = E3 0.01 mg/kg on days 14+18, day 20
# [16] = E3 0.01 mg/kg on days 14+18, day 21
# [17] = E3 0.01 mg/kg on days 14+18, day 23
# [18] = E3 0.01 mg/kg on days 14+18, day 24
# [19] = E3 0.03 mg/kg on days 14+18, day 14
# [20] = E3 0.03 mg/kg on days 14+18, day 15
# [21] = E3 0.03 mg/kg on days 14+18, day 16
# [22] = E3 0.03 mg/kg on days 14+18, day 17
# [23] = E3 0.03 mg/kg on days 14+18, day 18
# [24] = E3 0.03 mg/kg on days 14+18, day 20
# [25] = E3 0.03 mg/kg on days 14+18, day 21
# [26] = E3 0.03 mg/kg on days 14+18, day 23
# [27] = E3 0.03 mg/kg on days 14+18, day 24
# [28] = E3 0.1 mg/kg on days 14+18, day 14
# [29] = E3 0.1 mg/kg on days 14+18, day 15
molecule,measurement,setting,value
B1,Body weight normalized to day 0,"E3 0.003 mg/kg on days 14+18, day 0",100.00
same,Body weight normalized to day 0,"E3 0.003 mg/kg on days 14+18, day 1",98.37
same,Body weight normalized to day 0,"E3 0.003 mg/kg on days 14+18, day 2",102.47
same,Body weight normalized to day 0,"E3 0.003 mg/kg on days 14+18, day 3",106.54
same,Body weight normalized to day 0,"E3 0.003 mg/kg on days 14+18, day 4",110.09
same,Body weight normalized to day 0,"E3 0.003 mg/kg on days 14+18, day 7",121.29
same,Body weight normalized to day 0,"E3 0.003 mg/kg on days 14+18, day 8",124.44
same,Body weight normalized to day 0,"E3 0.003 mg/kg on days 14+18, day 9",125.91
same,Body weight normalized to day 0,"E3 0.003 mg/kg on days 14+18, day 10",123.30
same,Body weight normalized to day 0,"E3 0.003 mg/kg on days 14+18, day 11",119.55
same,Body weight normalized to day 0,[1],111.50
same,Body weight normalized to day 14,[1],100.00
same,Body weight normalized to day 0,[2],110.63
same,Body weight normalized to day 14,[2],99.20
same,Body weight normalized to day 0,[3],111.08
same,Body weight normalized to day 14,[3],99.58
same,Body weight normalized to day 0,[4],112.06
same,Body weight normalized to day 14,[4],100.46
same,Body weight normalized to day 0,[5],112.60
same,Body weight normalized to day 14,[5],100.90
same,Body weight normalized to day 0,[6],114.17
same,Body weight normalized to day 14,[6],102.26
same,Body weight normalized to day 0,[7],115.25
same,Body weight normalized to day 14,[7],103.16
same,Body weight normalized to day 0,[8],118.48
same,Body weight normalized to day 14,[8],106.09
same,Body weight normalized to day 0,[9],118.58
same,Body weight normalized to day 14,[9],106.16
same,Body weight normalized to day 0,"E3 0.01 mg/kg on days 14+18, day 0",100.00
same,Body weight normalized to day 0,"E3 0.01 mg/kg on days 14+18, day 1",98.86
same,Body weight normalized to day 0,"E3 0.01 mg/kg on days 14+18, day 2",102.61
same,Body weight normalized to day 0,"E3 0.01 mg/kg on days 14+18, day 3",106.29
same,Body weight normalized to day 0,"E3 0.01 mg/kg on days 14+18, day 4",110.61
same,Body weight normalized to day 0,"E3 0.01 mg/kg on days 14+18, day 7",121.59
same,Body weight normalized to day 0,"E3 0.01 mg/kg on days 14+18, day 8",124.47
same,Body weight normalized to day 0,"E3 0.01 mg/kg on days 14+18, day 9",125.82
same,Body weight normalized to day 0,"E3 0.01 mg/kg on days 14+18, day 10",123.87
same,Body weight normalized to day 0,"E3 0.01 mg/kg on days 14+18, day 11",121.20
same,Body weight normalized to day 0,[10],111.80
same,Body weight normalized to day 14,[10],100.00
same,Body weight normalized to day 0,[11],110.85
same,Body weight normalized to day 14,[11],99.18
same,Body weight normalized to day 0,[12],110.98
same,Body weight normalized to day 14,[12],99.33
same,Body weight normalized to day 0,[13],111.42
same,Body weight normalized to day 14,[13],99.69
same,Body weight normalized to day 0,[14],112.54
same,Body weight normalized to day 14,[14],100.69
same,Body weight normalized to day 0,[15],114.82
same,Body weight normalized to day 14,[15],102.70
same,Body weight normalized to day 0,[16],114.76
same,Body weight normalized to day 14,[16],102.63
same,Body weight normalized to day 0,[17],116.76
same,Body weight normalized to day 14,[17],104.41
same,Body weight normalized to day 0,[18],116.56
same,Body weight normalized to day 14,[18],104.23
same,Body weight normalized to day 0,"E3 0.03 mg/kg on days 14+18, day 0",100.00
same,Body weight normalized to day 0,"E3 0.03 mg/kg on days 14+18, day 1",98.67
same,Body weight normalized to day 0,"E3 0.03 mg/kg on days 14+18, day 2",102.05
same,Body weight normalized to day 0,"E3 0.03 mg/kg on days 14+18, day 3",105.31
same,Body weight normalized to day 0,"E3 0.03 mg/kg on days 14+18, day 4",109.24
same,Body weight normalized to day 0,"E3 0.03 mg/kg on days 14+18, day 7",117.15
same,Body weight normalized to day 0,"E3 0.03 mg/kg on days 14+18, day 8",118.52
same,Body weight normalized to day 0,"E3 0.03 mg/kg on days 14+18, day 9",118.60
same,Body weight normalized to day 0,"E3 0.03 mg/kg on days 14+18, day 10",115.26
same,Body weight normalized to day 0,"E3 0.03 mg/kg on days 14+18, day 11",112.94
same,Body weight normalized to day 0,[19],108.37
same,Body weight normalized to day 14,[19],100.00
same,Body weight normalized to day 0,[20],108.68
same,Body weight normalized to day 14,[20],100.34
same,Body weight normalized to day 0,[21],109.21
same,Body weight normalized to day 14,[21],100.89
same,Body weight normalized to day 0,[22],110.16
same,Body weight normalized to day 14,[22],101.80
same,Body weight normalized to day 0,[23],111.14
same,Body weight normalized to day 14,[23],102.70
same,Body weight normalized to day 0,[24],113.17
same,Body weight normalized to day 14,[24],104.51
same,Body weight normalized to day 0,[25],113.80
same,Body weight normalized to day 14,[25],105.08
same,Body weight normalized to day 0,[26],114.93
same,Body weight normalized to day 14,[26],106.14
same,Body weight normalized to day 0,[27],114.99
same,Body weight normalized to day 14,[27],106.23
same,Body weight normalized to day 0,"E3 0.1 mg/kg on days 14+18, day 0",100.00
same,Body weight normalized to day 0,"E3 0.1 mg/kg on days 14+18, day 1",99.31
same,Body weight normalized to day 0,"E3 0.1 mg/kg on days 14+18, day 2",102.87
same,Body weight normalized to day 0,"E3 0.1 mg/kg on days 14+18, day 3",106.26
same,Body weight normalized to day 0,"E3 0.1 mg/kg on days 14+18, day 4",110.20
same,Body weight normalized to day 0,"E3 0.1 mg/kg on days 14+18, day 7",120.50
same,Body weight normalized to day 0,"E3 0.1 mg/kg on days 14+18, day 8",123.48
same,Body weight normalized to day 0,"E3 0.1 mg/kg on days 14+18, day 9",125.46
same,Body weight normalized to day 0,"E3 0.1 mg/kg on days 14+18, day 10",123.95
same,Body weight normalized to day 0,"E3 0.1 mg/kg on days 14+18, day 11",121.98
same,Body weight normalized to day 0,[28],113.90
same,Body weight normalized to day 14,[28],100.00
same,Body weight normalized to day 0,[29],113.66
same,Body weight normalized to day 14,[29],99.83
same,Body weight normalized to day 0,"E3 0.1 mg/kg on days 14+18, day 16",115.06
